Here are results for seven molecules from publication PMC10912200 (Nature Communications, 2024).

Holding throughout (conditions): both partners purified
Assay [1] concerns the target T1, TcsH^2210-2618, His-tagged (Paeniclostridium sordellii, UniProt M9ZTT7 2210-2618).
T1 construct: not shown: His, C-terminal, kept
T1 sequence: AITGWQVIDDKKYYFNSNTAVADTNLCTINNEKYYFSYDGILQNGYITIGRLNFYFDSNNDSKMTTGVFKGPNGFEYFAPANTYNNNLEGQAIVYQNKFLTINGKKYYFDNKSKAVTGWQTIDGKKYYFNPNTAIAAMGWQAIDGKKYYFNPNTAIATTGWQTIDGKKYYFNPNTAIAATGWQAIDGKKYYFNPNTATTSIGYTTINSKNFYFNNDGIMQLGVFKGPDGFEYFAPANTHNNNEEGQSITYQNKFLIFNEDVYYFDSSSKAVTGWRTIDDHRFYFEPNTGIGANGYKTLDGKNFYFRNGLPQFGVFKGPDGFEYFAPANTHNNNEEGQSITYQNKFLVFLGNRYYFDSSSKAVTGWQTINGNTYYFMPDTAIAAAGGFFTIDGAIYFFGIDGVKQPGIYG
As to the kind of experiment: pull-down.

The target of assay [2] is T1, TcsH^2210-2618, His-tagged. As to the kind of experiment: BLI.
In a further assay the target is T2, MBP-fused TcsH^2236-2618 (Paeniclostridium sordellii, UniProt M9ZTT7 2236-2618).
T2 construct: source: E. coli BL21(DE3), purified (Amylose resin, SEC)
T2 sequence: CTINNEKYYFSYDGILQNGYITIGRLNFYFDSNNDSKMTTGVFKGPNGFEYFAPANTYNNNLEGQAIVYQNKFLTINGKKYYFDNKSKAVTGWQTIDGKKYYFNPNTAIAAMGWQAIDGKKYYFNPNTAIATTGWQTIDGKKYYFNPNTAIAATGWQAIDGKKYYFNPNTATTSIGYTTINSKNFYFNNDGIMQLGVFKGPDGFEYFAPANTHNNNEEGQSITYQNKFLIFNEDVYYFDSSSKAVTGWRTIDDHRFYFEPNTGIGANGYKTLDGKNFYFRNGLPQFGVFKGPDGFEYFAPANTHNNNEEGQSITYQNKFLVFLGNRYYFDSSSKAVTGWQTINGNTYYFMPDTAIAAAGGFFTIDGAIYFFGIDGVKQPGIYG
As to the kind of experiment: BLI.

B1: Fc-His-TMPRSS2^ECD [change] (Fc fusion)
chain: WKFMGSKCSNSGIECDSSGTCINPSNWCDGVSHCPGGEDENRCVRLYGPNFILQVYSSQRKSWHPVCQDDWNENYGRAACRDMGYKNNFYSSQGIVDDSGSTSFMKLNTSAGNVDIYKKLYHSDACSSKAVVSLRCIACGVNLNSSRQSQIVGGESALPGAWPWQVSLHVQNVHVCGGSIITPEWIVTAAHCVEKPLNNPWHWTAFAGILRQSFMFYGAGYQVEKVISHPNYDSKTKNNDIALMKLQKPLTFNDLVKPVCLPNPGMMLQPEQLCWISGWGATEEKGKTSEVLNAAKVLLIETQRCNSRYVYANLITPAMICAGFLQGNVDSCQGDSGGPLVTSKNNIWWLIGDTSWGSGCAKAYRPGVYGNVMVFTDWIYRQMRADG
notes: source: Expi293F, transfected, purified from the supernatant (TALON resin, SEC)
In the case of B1, in assay [1], the binding result is on record as “binds”.

B2: Fc-His-TMPRSS2^ECD [change] (Fc fusion)
chain: WKFMGSKCSNSGIECDSSGTCINPSNWCDGVSHCPGGEDENRCVRLYGPNFILQVYSSQRKSWHPVCQDDWNENYGRAACRDMGYKNNFYSSQGIVDDSGSTSFMKLNTSAGNVDIYKKLYHSDACSSKAVVSLRCIACGVNLNSSRQSQIVGGESALPGAWPWQVSLHVQNVHVCGGSIITPEWIVTAAHCVEKPLNNPWAWTAFAGILRQSFMFYGAGYQVEKVISHPNYDSKTKNNDIALMKLQKPLTFNDLVKPVCLPNPGMMLQPEQLCWISGWGATEEKGKTSEVLNAAKVLLIETQRCNSRYVYDNLITPAMICAGFLQGNVDSCQGDSGGPLVTSKNNIWWLIGDTSWGSGCAKAYRPGVYGNVMVFTDWIYRQMRADG
notes: as for B1
For B2, the binding result in assay [1] was “binds”.

B3: Fc-His-TMPRSS2^ECD [change] (Fc fusion)
chain: WKFMGSKCSNSGIECDSSGTCINPSNWCDGVSHCPGGEDENRCVRLYGPNFILQVYSSQRKSWHPVCQDDWNENYGRAACRDMGYKNNFYSSQGIVDDSGSTSFMKLNTSAGNVDIYKKLYHSDACSSKAVVSLRCIACGVNLNSSRQSQIVGGESALPGAWPWQVSLHVANVHVCGGSIITPEWIVTAAHCVEKPLNNPWHWTAFAGILRQSFMFYGAGYQVEKVISHPNYDSKTKNNDIALMKLQKPLTFNDLVKPVCLPNPGMMLQPEQLCWISGWGATEEKGKTSEVLNAAKVLLIETQRCNSRYVYDNLITPAMICAGFLQGNVDSCQGDSGGPLVTSKNNIWWLIGDTSWGSGCAKAYRPGVYGNVMVFTDWIYRQMRADG
notes: as for B1
As for B3, the binding result in assay [1] was “binds”.

B4: Fc-His-TMPRSS2^ECD [change] (Fc fusion)
chain: WKFMGSKCSNSGIECDSSGTCINPSNWCDGVSHCPGGEDENRCVRLYGPNFILQVYSSQRKSWHPVCQDDWNENYGRAACRDMGYKNNFYSSQGIVDDSGSTSFMKLNTSAGNVDIYKKLYHSDACSSKAVVSLRCIACGVNLNSSRQSQIVGGESALPGAWPWQVSLHVQNVHVCGGSIITPEWIVTAAHCVEKPRNNPWHWTAFAGILRQSFMFYGAGYQVEKVISHPNYDSKTKNNDIALMKLQKPLTFNDLVKPVCLPNPGMMLQPEQLCWISGWGATEEKGKTSEVLNAAKVLLIETQRCNSRYVYDNLITPAMICAGFLQGNVDSCQGDSGGPLVTSKNNIWWLIGDTSWGSGCAKAYRPGVYGNVMVFTDWIYRQMRADG
notes: as for B1
On to B4, for which the binding result in assay [1] is on record as “binds”.

B5: Fc-His-TMPRSS2^ECD [change] (Fc fusion)
chain: WKFMGSKCSNSGIECDSSGTCINPSNWCDGVSHCPGGEDENRCVRLYGPNFILQVYSSQRKSWHPVCQDDWNENYGRAACRDMGYKNNFYSSQGIVDDSGSTSFMKLNTSAGNVDIYKKLYHSDACSSKAVVSLRCIACGVNLNSSRQSQIVGGESALPGAWPWQVSLHVQNVHVCGGSIITPEWIVTAAHCVEKPLNNPWHWTAFAGILRQSFMFYGAGYQVEKVISHPNYDSKTKNNDIALMKLQKPLTFNDLVKPVCLPNPGMMLQPEQLCWISGWGATEEKGKTSEVLNAAKVLLIETQRCNSRYVYDNRITPAMICAGFLQGNVDSCQGDSGGPLVTSKNNIWWLIGDTSWGSGCAKAYRPGVYGNVMVFTDWIYRQMRADG
notes: as for B1
Regarding B5, in assay [1], the binding result is on record as “binds”.

B6: Fc-His-TMPRSS2^ECD [change] (Fc fusion)
chain: WKFMGSKCSNSGIECDSSGTCINPSNWCDGVSHCPGGEDENRCVRLYGPNFILQVYSSQRKSWHPVCQDDWNENYGRAACRDMGYKNNFYSSQGIVDDSGSTSFMKLNTSAGNVDIYKKLYHSDACSSKAVVSLRCIACGVNLNSSRQSQIVGGESALPGAWPWQVSLHRQNVHVCGGSIITPEWIVTAAHCVEKPLNNPWHWTAFAGILRQSFMFYGAGYQVEKVISHPNYDSKTKNNDIALMKLQKPLTFNDLVKPVCLPNPGMMLQPEQLCWISGWGATEEKGKTSEVLNAAKVLLIETQRCNSRYVYDNLITPAMICAGFLQGNVDSCQGDSGGPLVTSKNNIWWLIGDTSWGSGCAKAYRPGVYGNVMVFTDWIYRQMRADG
notes: as for B1
Regarding B6, in assay [1], the binding result is “binds”.

B7: Fc-His-TMPRSS2^ECD (Fc fusion)
chain: WKFMGSKCSNSGIECDSSGTCINPSNWCDGVSHCPGGEDENRCVRLYGPNFILQVYSSQRKSWHPVCQDDWNENYGRAACRDMGYKNNFYSSQGIVDDSGSTSFMKLNTSAGNVDIYKKLYHSDACSSKAVVSLRCIACGVNLNSSRQSQIVGGESALPGAWPWQVSLHVQNVHVCGGSIITPEWIVTAAHCVEKPLNNPWHWTAFAGILRQSFMFYGAGYQVEKVISHPNYDSKTKNNDIALMKLQKPLTFNDLVKPVCLPNPGMMLQPEQLCWISGWGATEEKGKTSEVLNAAKVLLIETQRCNSRYVYDNLITPAMICAGFLQGNVDSCQGDSGGPLVTSKNNIWWLIGDTSWGSGCAKAYRPGVYGNVMVFTDWIYRQMRADG
Take B7: the Kd turned out to be 0.37 nM in assay [2] and 0.75 nM with MBP-fused TcsH^2236-2618.
